Literature values in PMC3642679.

Biological target: sliding clamp beta (Escherichia coli) (UniProt P0A988)
Sequence of UniProt P0A988 (P0A988 whole entry): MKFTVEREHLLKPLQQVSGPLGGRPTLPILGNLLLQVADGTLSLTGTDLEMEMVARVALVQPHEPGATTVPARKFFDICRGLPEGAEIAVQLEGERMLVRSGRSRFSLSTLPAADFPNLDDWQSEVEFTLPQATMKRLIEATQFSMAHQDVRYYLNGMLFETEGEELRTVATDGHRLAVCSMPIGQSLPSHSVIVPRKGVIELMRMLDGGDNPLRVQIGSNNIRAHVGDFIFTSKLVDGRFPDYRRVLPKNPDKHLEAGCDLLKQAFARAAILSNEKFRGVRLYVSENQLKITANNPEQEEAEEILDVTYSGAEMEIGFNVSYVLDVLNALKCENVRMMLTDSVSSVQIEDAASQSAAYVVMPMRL

In the case of Pol III alpha (from UniProt P10443), the Kd is given as 1000 nM.
